Experimental findings from PMC9039736, “Identifying novel SMYD3 interactors on the trail of cancer hallmarks” (Computational and Structural Biotechnology Journal, 2022) are described below.

B1: HIS-SMYD3-FL (natural protein, human, UniProt Q9H7B4 1-428, looked up)
chain: MEPLKVEKFATAKRGNGLRAVTPLRPGELLFRSDPLAYTVCKGSRGVVCDRCLLGKEKLMRCSQCRVAKYCSAKCQKKAWPDHKRECKCLKSCKPRYPPDSVRLLGRVVFKLMDGAPSESEKLYSFYDLESNINKLTEDKKEGLRQLVMTFQHFMREEIQDASQLPPAFDLFEAFAKVICNSFTICNAEMQEVGVGLYPSISLLNHSCDPNCSIVFNGPHLLLRAVRDIEVGEELTICYLDMLMTSEERRKQLRDQYCFECDCFRCQTQDKDADMLTGDEQVWKEVQESLKKIEELKAHWKWEQVLAMCQAIISSNSERLPDINIYQLKVLDCAMDACINLGLLEEALFYGTRTMEPYRIFFPGSHPVRGVQVMKVGKLQLHQGMFPQAMKNLRLAFDIMRVTHGREHSLIEDLILLLEECDANIRAS
notes: SMYD3, human, full length (constructs count to residue 428); also called HIS-SMYD3-FL (full length); source: recombinant human protein
B2: HIS-SMYD3-N-term(1–235) (domain or fragment, human, UniProt Q9H7B4 1-235, looked up)
chain: MEPLKVEKFATAKRGNGLRAVTPLRPGELLFRSDPLAYTVCKGSRGVVCDRCLLGKEKLMRCSQCRVAKYCSAKCQKKAWPDHKRECKCLKSCKPRYPPDSVRLLGRVVFKLMDGAPSESEKLYSFYDLESNINKLTEDKKEGLRQLVMTFQHFMREEIQDASQLPPAFDLFEAFAKVICNSFTICNAEMQEVGVGLYPSISLLNHSCDPNCSIVFNGPHLLLRAVRDIEVGEEL
notes: SMYD3, human, residues 1-235, comprises the SET domain; source: recombinant human protein
B3: HIS-SMYD3-C-term(236–428) (domain or fragment, human, UniProt Q9H7B4 236-428, looked up)
chain: TICYLDMLMTSEERRKQLRDQYCFECDCFRCQTQDKDADMLTGDEQVWKEVQESLKKIEELKAHWKWEQVLAMCQAIISSNSERLPDINIYQLKVLDCAMDACINLGLLEEALFYGTRTMEPYRIFFPGSHPVRGVQVMKVGKLQLHQGMFPQAMKNLRLAFDIMRVTHGREHSLIEDLILLLEECDANIRAS
notes: SMYD3, human, residues 236-428, comprises the CT domain; source: recombinant human protein

For the assay, the target named is T1, GST-BRCA2(1338–1781) (human, UniProt P51587 1338-1781).
T1 construct: one of nine GST fusion proteins spanning the entire coding region of BRCA2; source: recombinant GST fusion protein
T1 sequence (P51587 1338-1781): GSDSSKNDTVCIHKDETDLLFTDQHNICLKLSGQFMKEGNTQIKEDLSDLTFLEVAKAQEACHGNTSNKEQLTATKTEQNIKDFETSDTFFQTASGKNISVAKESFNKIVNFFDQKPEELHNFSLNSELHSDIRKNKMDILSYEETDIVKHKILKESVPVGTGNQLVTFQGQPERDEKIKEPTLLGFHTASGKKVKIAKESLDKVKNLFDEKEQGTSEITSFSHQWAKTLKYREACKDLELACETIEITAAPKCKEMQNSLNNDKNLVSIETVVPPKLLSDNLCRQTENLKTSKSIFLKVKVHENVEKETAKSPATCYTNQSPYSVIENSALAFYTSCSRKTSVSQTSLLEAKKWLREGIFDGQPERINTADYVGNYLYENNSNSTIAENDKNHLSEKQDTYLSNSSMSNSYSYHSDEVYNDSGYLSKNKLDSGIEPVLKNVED
Briefly: pull-down; 200 ng HIS-SMYD3 construct with 500 ng GST-BRCA2(1338-1781), 1 h at 4 °C; precipitated by Dynabeads HIS-Tag Isolation and Pulldown; washed in buffer A (20 mM Tris-HCl pH 8, 150 mM KCl, 5 mM MgCl2, 0.2 mM EDTA, 10% glycerol, 0.1% NP-40, 1 mM DTT); immunoblot anti-GST and anti-HIS. Conditions: both partners purified. (In western blotting, separated proteins are transferred to a membrane and probed.)
As to B1, the binding result is reported as “binds”.
Consider B2, for which the binding result is recorded as “binds”.
B3: the binding result is given as “binds”.
